The experiment addresses T1, SETD3 (Homo sapiens, UniProt Q86TU7).
T1 construct: GST (cleaved yes); made in house; host or cells: Escherichia coli BL21(DE3) CodonPlus
T1 sequence (Q86TU7 1-594): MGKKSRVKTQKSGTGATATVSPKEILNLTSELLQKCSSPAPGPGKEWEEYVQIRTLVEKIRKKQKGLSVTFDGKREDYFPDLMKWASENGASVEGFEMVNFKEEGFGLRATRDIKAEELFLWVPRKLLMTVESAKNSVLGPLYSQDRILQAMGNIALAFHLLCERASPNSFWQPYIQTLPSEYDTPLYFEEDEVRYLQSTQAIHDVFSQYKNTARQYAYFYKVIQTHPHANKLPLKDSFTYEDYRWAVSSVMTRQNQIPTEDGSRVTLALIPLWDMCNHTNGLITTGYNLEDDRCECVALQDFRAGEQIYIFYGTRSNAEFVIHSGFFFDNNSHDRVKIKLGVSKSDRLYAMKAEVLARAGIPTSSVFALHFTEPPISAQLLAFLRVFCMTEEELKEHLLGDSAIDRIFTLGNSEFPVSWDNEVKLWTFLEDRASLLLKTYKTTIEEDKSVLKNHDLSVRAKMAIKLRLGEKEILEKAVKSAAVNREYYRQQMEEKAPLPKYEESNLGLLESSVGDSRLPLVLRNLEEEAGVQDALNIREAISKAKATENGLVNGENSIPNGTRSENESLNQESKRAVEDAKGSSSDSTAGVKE
The experiment is described as follows: SETD3 activity time course under conditions optimized for H73(66-80) (Supplementary Fig. 3a). It is filed as biochemical. The note with it: pH 8.0, room temperature; for CH3 transferred: [E]=0.18 µM, [SAM]=40 µM, [S]=20 µM. Here is the method:
Recombinant human SETD3 (pXC2003) was expressed as a GST-fusion[22] in Escherichia coli BL21(DE3) CodonPlus^TM cells (Stratagene). The SETD3 mutants at residue 255 (N255A; pXC2093 and N255V; pXC2094) were generated with Q5 Site-Directed Mutagenesis Kit (New England Biolabs), confirmed by sequencing and the same protocol for expression and purification were followed. Briefly, the purification was conducted in a BIO-RAD NGC^TM system using a three-column chromatography of glutathione-sepharose, HiTrap Q-HP and Superdex 200. The GST tag was removed by PreScisson Protease (purified in-house). The purified SETD3 proteins at a concentration ~25–35 mg/ml were kept at −80 °C in storage buffer for future use [20 mM Tris (pH 8.0), 200 mM NaCl, 5% glycerol, and 0.5 mM tris (2-carboxyethyl) phosphine (TCEP)]. […]
conditions optimized for H73(66-80) (red line): [E]=0.18 µM, [SAM]=40 µM, [S]=20 µM, pH 8.0 at room temperature for indicated reaction time. b, SETD3 activity on H73(66-80) at two difference temperatures under the conditions of [E]=0.18 µM, [SAM]=40 µM, [SH7 3]=20 µM at pH 8. 0 for 20 min reaction. c, SETD3 activity on K73 (66-80 ) at room temperature (~22 °C) and 37 °C under the conditions of increased amounts of [E]=15 µM, [SAM]=100 µM and [S K73]=700 µM at pH 8.0 for overnight reaction. Data represent the mean ± SD of N number of independent determinations (N=2 in panels a and b and N=4 in panel c) performed in duplicate. […]

Experimental findings from publication PMC6684798, “Structural basis for the target specificity of actin histidine methyltransferase SETD3” (Nature Communications, 2019) are described below.

Regarding “K73(66–80): K73-containing (H73K) actin peptide, residues 66–80 (TLKYPIEKGIVTNWD; UniProt P60709 66-80, looked up, variant H73K)”, the CH3 transferred is, setting by setting: (0 min, replicate 1) 0 µM; (0 min, replicate 2) 0 µM; (10 min, replicate 1) 0.00913 µM; (10 min, replicate 2) 0.005151 µM; (20 min, replicate 1) 0.005187 µM; (20 min, replicate 2) 0.000604 µM. In addition, the CH3 transferred (30 min, replicate 1) was 0.002842 µM and the CH3 transferred (30 min, replicate 2) is -0.00142 µM. Also, the “SETD3 activity under conditions optimized for H73 peptide” value ([E] = 0.18 µM, [SAM] = 40 µM, [S] = 20 µM) is recorded as “no activity”.
